± gives the standard error. For some assays here: Fewer inactive variants are shown than the library holds.
B1: glmS ribozyme (parent)
chain: AUAAAAGCGCCAGAACUACAGAAAUGUAGUUGACGAGGAGGAGGUUUAUCGAAUUUUCGGCGGAUGCCUCCAAA

Legend:
Settings in all cases: with glucosamine-6-phosphate
[1] = variants of: B1; experiment: kcat; higher = faster cleavage; RNA array
Outline: (§1)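 Tracking of barcoded ribozyme variants used a hybridised Cy3 probe at 37 °C, after in situ transcription by E. coli RNA polymerase on sequenced MiSeq chips. The flowed solution held 40 μM to 10 mM glucosamine-6-phosphate in HEPES/KCl/Mg(OAc)2 buffer, and imaging ran over ~14 h. kobs was taken from exponential decay fits of normalised per-tile medians, and kcat and KM from weighted Michaelis–Menten fits.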

[2] = variants of: B1; experiment: KM; higher = weaker cofactor use; RNA array
Outline: as §1

[3] = variants of: B1; experiment: self-cleavage kobs at 40 uM GlcN6P; higher = faster cleavage; RNA array
Outline: as §1

[4] = variants of: B1; experiment: self-cleavage kobs at 160 uM GlcN6P; higher = faster cleavage; RNA array
Outline: as §1

[5] = variants of: B1; experiment: self-cleavage kobs at 640 uM GlcN6P; higher = faster cleavage; RNA array
Outline: as §1

[6] = variants of: B1; experiment: self-cleavage kobs at 2500 uM GlcN6P; higher = faster cleavage; RNA array
Outline: as §1

[7] = variants of: B1; experiment: self-cleavage kobs at 10000 uM GlcN6P; higher = faster cleavage; RNA array
Outline: as §1

## AUAAAAGCGCCAGACCUACAGAAAUGUAGUUGACGAGGAGGAGGUUUAUCGAAUUUUCGGCGGGUGCCUCCAAA [A15C A64G]
[1]
  kcat: 0.00792 ± 0.0013 s⁻¹
[2]
  KM: 2980 ± 660 µM
[3]
  self-cleavage kobs at 40 uM GlcN6P: 0.000125 ± 1.6e-05 s⁻¹
[4]
  self-cleavage kobs at 160 uM GlcN6P: 0.00037 ± 6.2e-05 s⁻¹
[5]
  self-cleavage kobs at 640 uM GlcN6P: 0.00113 ± 0.00024 s⁻¹
[6]
  self-cleavage kobs at 2500 uM GlcN6P: 0.00387 ± 0.00068 s⁻¹
[7]
  self-cleavage kobs at 10000 uM GlcN6P: 0.00614 ± 0.00072 s⁻¹

## AUAAAAGCGCCUGAACUACAGAAAUGUAGUUGACGAGGAGGAGGUUUAUCGAAUUUUCGACGGAUGCCUCCAAA [A12U G60A]
[1]
  kcat: 8.33e-05 ± 8e-06 s⁻¹
[2]
  KM: 2040 ± 700 µM
[5]
  self-cleavage kobs at 640 uM GlcN6P: 2.88e-05 ± 1.4e-05 s⁻¹
[6]
  self-cleavage kobs at 2500 uM GlcN6P: 4.12e-05 ± 1e-05 s⁻¹
[7]
  self-cleavage kobs at 10000 uM GlcN6P: 7.02e-05 ± 8.4e-06 s⁻¹

## AUAAAAGCGCCAGAACUACAGAAAUGUAUUUGACGAGGAGGAGGUUUAUCGAAUCUUCGGCGGAUGCCUCCAAA [G29U U55C]
[1]
  kcat: 0.00826 ± 0.0027 s⁻¹
[2]
  KM: 3740 ± 1700 µM
[3]
  self-cleavage kobs at 40 uM GlcN6P: 0.000123 ± 1.8e-05 s⁻¹
[4]
  self-cleavage kobs at 160 uM GlcN6P: 0.000198 ± 7.2e-05 s⁻¹
[5]
  self-cleavage kobs at 640 uM GlcN6P: 0.00112 ± 0.0002 s⁻¹
[6]
  self-cleavage kobs at 2500 uM GlcN6P: 0.00427 ± 0.0009 s⁻¹
[7]
  self-cleavage kobs at 10000 uM GlcN6P: 0.00588 ± 0.00079 s⁻¹

## AUAAAAGCGCCAGAACUACAGAAAUGUAGUUGACGAGGAGGAGGUUUAUCGAAUUGUCGGCGGACGCCUCCAAA [U56G U65C]
[1]
  kcat: 0.000622 ± 6.2e-05 s⁻¹
[2]
  KM: 6800 ± 1000 µM
[6]
  self-cleavage kobs at 2500 uM GlcN6P: 0.000169 ± 3.3e-05 s⁻¹
[7]
  self-cleavage kobs at 10000 uM GlcN6P: 0.000366 ± 0.00011 s⁻¹

## AUAAAAGCGCCAGAACUACAGAAAUGUAGUUGACGAGGGGGAGGUUUAUCGAAUUUUCGGCGGAUUCCUCCAAA [A39G G66U]
[1]
  kcat: 0.00533 ± 0.00016 s⁻¹
[2]
  KM: 1960 ± 79 µM
[3]
  self-cleavage kobs at 40 uM GlcN6P: 0.000107 ± 1.9e-05 s⁻¹
[5]
  self-cleavage kobs at 640 uM GlcN6P: 0.00133 ± 0.00029 s⁻¹
[6]
  self-cleavage kobs at 2500 uM GlcN6P: 0.00285 ± 0.0009 s⁻¹
[7]
  self-cleavage kobs at 10000 uM GlcN6P: 0.00451 ± 0.00097 s⁻¹

## AUAAAAGCGCCAGAACUACAGAAAUGUAGUUGACGAGGAGGAGGUUUAUCGAACCUUCGGCGGAUGCCUCCAAA [U54C U55C]
[1]
  kcat: 0.014 ± 0.0045 s⁻¹
[2]
  KM: 2720 ± 1100 µM
[3]
  self-cleavage kobs at 40 uM GlcN6P: 0.000294 ± 4.1e-05 s⁻¹
[4]
  self-cleavage kobs at 160 uM GlcN6P: 0.000636 ± 8.9e-05 s⁻¹
[5]
  self-cleavage kobs at 640 uM GlcN6P: 0.00279 ± 0.00037 s⁻¹
[6]
  self-cleavage kobs at 2500 uM GlcN6P: 0.00663 ± 0.0011 s⁻¹
[7]
  self-cleavage kobs at 10000 uM GlcN6P: 0.0111 ± 0.0019 s⁻¹

## AUAAAAGCGCCAGAACUACAGAAAUGUAGUUGACGAGGAGGAGGUUUAUGGAAUUUACGGCGGAUGCCUCCAAA [C50G U57A]
[1]
  kcat: 7.3e-05 ± 1.7e-05 s⁻¹
[3]
  self-cleavage kobs at 40 uM GlcN6P: 3.58e-05 ± 1.6e-05 s⁻¹
[4]
  self-cleavage kobs at 160 uM GlcN6P: 8.31e-05 ± 1.4e-05 s⁻¹
[5]
  self-cleavage kobs at 640 uM GlcN6P: 5.84e-05 ± 1.6e-05 s⁻¹
[6]
  self-cleavage kobs at 2500 uM GlcN6P: 6.05e-05 ± 2.7e-05 s⁻¹

## AUAAAAGCGCCUGAACUACAGAAAUGUAGUUGACGAGGAGGAGUUUUAUCGAAUUUUCGGCGGAUGCCUCCAAA [A12U G44U]
[1]
  kcat: 0.000852 ± 0.00012 s⁻¹
[2]
  KM: 1290 ± 350 µM
[3]
  self-cleavage kobs at 40 uM GlcN6P: 3.83e-05 ± 8.2e-06 s⁻¹
[4]
  self-cleavage kobs at 160 uM GlcN6P: 7.54e-05 ± 1.9e-05 s⁻¹
[5]
  self-cleavage kobs at 640 uM GlcN6P: 0.000264 ± 4.7e-05 s⁻¹
[6]
  self-cleavage kobs at 2500 uM GlcN6P: 0.000645 ± 0.0001 s⁻¹
[7]
  self-cleavage kobs at 10000 uM GlcN6P: 0.000739 ± 8e-05 s⁻¹

## AUAAAAGCGCCAGAACUACAGAAAUGUAGUUGACGAGCAGGAGGUUAAUCGAAUUUUCGGCGGAUGCCUCCAAA [G38C U47A]
[1]
  kcat: < 1e-05 s⁻¹
[3]
  self-cleavage kobs at 40 uM GlcN6P: < 1e-05 s⁻¹
[4]
  self-cleavage kobs at 160 uM GlcN6P: < 1e-05 s⁻¹
[6]
  self-cleavage kobs at 2500 uM GlcN6P: < 1e-05 s⁻¹
[7]
  self-cleavage kobs at 10000 uM GlcN6P: < 1e-05 s⁻¹

## AUAAAAGCGCCAGAAAUACAGAAAUGUAGUUGACGAGGAGGAGGUUUAUCGAAUUUUCGGCGGAUCCCUCCAAA [C16A G66C]
[1]
  kcat: 6.9e-05 ± 1.7e-05 s⁻¹
[3]
  self-cleavage kobs at 40 uM GlcN6P: < 1e-05 s⁻¹
[7]
  self-cleavage kobs at 10000 uM GlcN6P: 2.41e-05 ± 1.1e-05 s⁻¹

## AUAAAAGCGCCAGAACUACAGAAAUGUAGCUGACGAGGACGAGGUUUAUCGAAUUUUCGGCGGAUGCCUCCAAA [U30C G40C]
[1]
  kcat: 4.04e-05 ± 5.2e-06 s⁻¹
[6]
  self-cleavage kobs at 2500 uM GlcN6P: 2.58e-05 ± 1.2e-05 s⁻¹
[7]
  self-cleavage kobs at 10000 uM GlcN6P: 3.87e-05 ± 1.2e-05 s⁻¹

## AUAAAAGCGCCAGAACUACAGAAAUGUAGUUGACGAGGAGGAGGUUAAUCGAAUUUUCGGCGGAUUCCUCCAAA [U47A G66U]
[1]
  kcat: 0.00545 ± 0.0009 s⁻¹
[2]
  KM: 1780 ± 480 µM
[3]
  self-cleavage kobs at 40 uM GlcN6P: 0.00013 ± 2.5e-05 s⁻¹
[5]
  self-cleavage kobs at 640 uM GlcN6P: 0.00141 ± 0.00028 s⁻¹
[6]
  self-cleavage kobs at 2500 uM GlcN6P: 0.00244 ± 0.00069 s⁻¹
[7]
  self-cleavage kobs at 10000 uM GlcN6P: 0.00506 ± 0.00076 s⁻¹

## AUAAAAGCGCUAGAACUACAGAAAUGUAGUUGACGAGGAGGAGGUUUAUCGAAUUAUCGGCGGAUGCCUUCAAA [C11U U56A C70U]
[1]
  kcat: 0.00048 ± 0.00011 s⁻¹
[3]
  self-cleavage kobs at 40 uM GlcN6P: 3.04e-05 ± 9.5e-06 s⁻¹
[5]
  self-cleavage kobs at 640 uM GlcN6P: 0.000508 ± 0.00011 s⁻¹
[6]
  self-cleavage kobs at 2500 uM GlcN6P: 0.000485 ± 0.00013 s⁻¹
[7]
  self-cleavage kobs at 10000 uM GlcN6P: 0.000416 ± 6.3e-05 s⁻¹

## AUAAAAGCGCCAGAACUACAGAAAUGUAGUUGACGAGGAGGAGCUUUAUCGACUUUUCGGCGGAUGCCUCCAAA [G44C A53C]
[1]
  kcat: 6.93e-05 ± 2.5e-06 s⁻¹
[2]
  KM: 2650 ± 300 µM
[6]
  self-cleavage kobs at 2500 uM GlcN6P: 3.4e-05 ± 1e-05 s⁻¹
[7]
  self-cleavage kobs at 10000 uM GlcN6P: 5.46e-05 ± 9.3e-06 s⁻¹

From the supplement of paper PMC7125110
